# Reference: patent publication US20230346885A1 (published 2023)
# Where a chain is given by its changes, count along the chain named.
# T1: TRPM1 peptide on HLA (human)
# T1 peptide: RLGQGVPLV
# T2: SMC1B peptide on HLA (human)
# T2 peptide: NIQELIHGA
# T3: SMC1B peptide on HLA (human)
# T3 peptide: KLQKEVVSI
# B1: TCR of SEQ ID NOs 599 and 600 (TCR, V domains shown)
# Valpha: KQEVTQIPAALSVPEGENLVLNCSFTDSAIYNLQWFRQDPGKGLTSLLLIQSSQREQTSGRLNASLDKSSGRSTLYIAASQPGDSATYLCAVSGSWGKLQFGAGTQVVVTP
# Vbeta: NAGVTQTPKFRVLKTGQSMTLLCAQDMNHEYMYWYRQDPGMGLRLIHYSVGEGTTAKGEVPDGYNVSRSTTEDFPLRLLSAAPSQTSVYFCASSLMDRPGEQFFGPGTRLTVL
# B2: TCR of SEQ ID NOs 603 and 604 (TCR, V domains shown)
# Valpha: B1 Valpha with S93R, G94D, L99F
# Vbeta: NAGVTQTPKFQVLKTGQSMTLQCAQDMNHNSMYWYRQDPGMGLRLIYYSASEGTTDKGEVPNGYNVSRLNKREFSLRLESAAPSQTSVYFCASSEWAWGLGTEAFFGQGTRLTVV
# B3: TCR of SEQ ID NOs 601 and 602 (TCR, V domains shown)
# Valpha: B1 Valpha with S93T, G94D
# Vbeta: NAGVTQTPKFRVLKTGQSMTLLCAQDMNHEYMYWYRQDPGMGLRLIHYSVGEGTTAKGEVPDGYNVSRLKKQNFLLGLESAAPSQTSVYFCASSYADTYEQYFGPGTRLTVT
# B4: TCR of SEQ ID NOs 595 and 596 (TCR, V domains shown)
# Valpha: KQEVTQIPAALSVPEGENLVLNCSFTDSAIYNLQWFRQDPGKGLTSLLLIQSSQREQTSGRLNASLDKSSGRSTLYIAASQPGDSATYLCAVKEGTDSWGKFQFGAGTQVVVTP
# Vbeta: NAGVTQTPKFRVLKTGQSMTLLCAQDMNHEYMYWYRQDPGMGLRLIHYSVGEGTTAKGEVPDGYNVSRLKKQNFLLGLESAAPSQTSVYFCASSYPSREAFFGQGTRLTVV
# B5: TCR of SEQ ID NOs 597 and 598 (TCR, V domains shown)
# Valpha: KQEVTQIPAALSVPEGENLVLNCSFTDSAIYNLQWFRQDPGKGLTSLLLIQSSQREQTSGRLNASLDKSSGRSTLYIAASQPGDSATYLCAVWSWGKLQFGAGTQVVVTP
# Vbeta: B4 Vbeta with Y95R, P96G, S97V, R98P, A100V
# B6: TCR of SEQ ID NOs 593 and 594 (TCR, V domains shown)
# Valpha: KQEVTQIPAALSVPEGENLVLNCSFTDSAIYNLQWFRQDPGKGLTSLLLIQSSQREQTSGRLNASLDKSSGRSTLYIAASQPGDSATYLCAVRPWGYNQGGKLIFGQGTELSVKP
# Vbeta: NAGVTQTPKFQVLKTGQSMTLQCAQDMNHNSMYWYRQDPGMGLRLIYYSASEGTTDKGEVPNGYNVSRSTTEDFPLRLLSAAPSQTSVYFCASSYWGDTEAFFGQGTRLTVV
# B7: TCR of SEQ ID NOs 587 and 588 (TCR, V domains shown)
# Valpha: KQEVTQIPAALSVPEGENLVLNCSFTDSAIYNLQWFRQDPGKGLTSLLLIQSSQREQTSGRLNASLDKSSGRSTLYIAASQPGDSATYLCAVSPRSNDYKLSFGAGTTVTVRA
# Vbeta: NAGVTQTPKFRILKIGQSMTLQCAQDMNHNYMYWYRQDPGMGLKLIYYSVGAGITDKGEVPNGYNVSRSTTEDFPLRLELAAPSQTSVYFCASSTGSSYNSPLHFGNGTRLTVT
# B8: TCR of SEQ ID NOs 589 and 590 (TCR, V domains shown)
# Valpha: QKEVEQNSGPLSVPEGAIASLNCTYSDRGSQSFFWYRQYSGKSPELIMSIYSNGDKEDGRFTAQLNKASQYVSLLIRDSQPSDSATYLCAVGGRDDKIIFGKGTRLHILP
# Vbeta: NAGVTQTPKFQVLKTGQSMTLQCAQDMNHNSMYWYRQDPGMGLRLIYYSASEGTTDKGEVPNGYNVSRSTTEDFPLRLLSAAPSQTSVYFCASSYTDGVNSPLHFGNGTRLTVT
# B9: TCR of SEQ ID NOs 591 and 592 (TCR, V domains shown)
# Valpha: KQEVTQIPAALSVPEGENLVLNCSFTDSAIYNLQWFRQDPGKGLTSLLLIQSSQREQTSGRLNASLDKSSGRSTLYIAASQPGDSATYLCAVDQDSGYALNFGKGTSLLVTP
# Vbeta: DTGVSQNPRHKITKRGQNVTFRCDPISEHNRLYWYRQTLGQGPEFLTYFQNEAQLEKSRLLSDRFSAERPKGSFSTLEIQRTEQGDSAMYLCASSLYRSYEQYFGPGTRLTVT
# Experiments:
# Experiment in all cases: binding, other
# TRPM1 peptide on HLA = target: T1, TRPM1 peptide on HLA
# SMC1B peptide on HLA [1] = target: T2, SMC1B peptide on HLA
# SMC1B peptide on HLA [2] = target: T3, SMC1B peptide on HLA
Binder,binding result (TRPM1 peptide on HLA),binding result (SMC1B peptide on HLA [1]),binding result (SMC1B peptide on HLA [2])
B1,recognises,,
B2,recognises,,
B3,recognises,,
B4,,recognises,
B5,,recognises,
B6,,recognises,
B7,,,recognises
B8,,,recognises
B9,,,recognises
